Source: PMC4973743, “Functional analysis of structurally related soybean GmWRKY58 and GmWRKY76 in plant growth and development”

T1: GmWRKY58 (Glycine max (soybean), UniProt B0LUS3 1-317)
T1 sequence: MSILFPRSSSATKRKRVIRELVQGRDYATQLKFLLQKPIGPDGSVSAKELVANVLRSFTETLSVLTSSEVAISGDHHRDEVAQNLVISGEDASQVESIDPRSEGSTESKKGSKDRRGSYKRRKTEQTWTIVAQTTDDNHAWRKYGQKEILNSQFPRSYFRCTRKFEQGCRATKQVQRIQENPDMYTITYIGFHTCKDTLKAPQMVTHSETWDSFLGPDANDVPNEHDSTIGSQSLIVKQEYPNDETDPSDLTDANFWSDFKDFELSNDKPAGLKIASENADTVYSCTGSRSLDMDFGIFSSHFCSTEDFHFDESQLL

T2: GmWRKY76 (Glycine max (soybean), UniProt I1KB70 1-319)
T2 sequence: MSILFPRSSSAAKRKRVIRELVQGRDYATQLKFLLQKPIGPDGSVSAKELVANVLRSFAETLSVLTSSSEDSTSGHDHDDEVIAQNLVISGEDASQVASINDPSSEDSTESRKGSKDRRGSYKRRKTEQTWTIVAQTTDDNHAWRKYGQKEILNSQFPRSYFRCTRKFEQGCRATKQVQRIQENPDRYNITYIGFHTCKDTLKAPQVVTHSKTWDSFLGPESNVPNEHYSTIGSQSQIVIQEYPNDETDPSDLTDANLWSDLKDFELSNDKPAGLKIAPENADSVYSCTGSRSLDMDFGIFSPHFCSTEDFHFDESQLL


Legend:
GmWRKY58 = molecular target: T1, GmWRKY58; test: EMSA; 5 ug poly(dI-dC), 1 ug protein; LightShift Chemiluminescent EMSA kit; 20 ul reactions, 2 ng labeled oligo, 5 ug poly(dI-dC), 1 ug recombinant protein; buffer, salt, pH and temperature not stated; conditions: tags: His (pET32a fusion), label: biotin 3' end
GmWRKY76 = molecular target: T2, GmWRKY76; test: as above; conditions: tags: His (pET32a fusion), label: biotin 3' end

Binder | binding result (GmWRKY58) | binding result (GmWRKY76)
Pchn5 (dsDNA) DNA 1: GGAACTTGACCATCCGTTGACCGGGCTGCAGGAATTCG DNA 2: CGAATTCCTGCAGCCCGGTCAACGGATGGTCAAGTTCC | binds | binds
mPchn5 (dsDNA) DNA 1: GGAACTTGAACATCCGTTGAACGGGCTGCAGGAATTCG DNA 2: CGAATTCCTGCAGCCCGTTCAACGGATGTTCAAGTTCC | no binding | no binding
